Test: yeast display, Sf9 membrane polyspecificity reagent, FACS + sequencing; frameworks hold sequencing errors
Summary of the method: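 After 36–48 hours of galactose induction, yeast (Saccharomyces cerevisiae BJ5465) displaying a synthetic nanobody library were stained at 4 °C for 1 hour with 10% biotinylated, detergent-solubilized Sf9 membrane reagent. Streptavidin microbeads enriched the stained cells before FACS sorting into low and high (top ~1%) gates on anti-HA and streptavidin fluorescence. Each clone's polyreactivity label reflects its gate of origin.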

Sequence: QVQLVESGGGLVQAGGSLRLSCAASGSIFYSYAMGWYRQAPGKERELVAAINSGGRTYYADSVKGRFTISRDNAKNTVYLQMNSLKPEDTAVYYCAARHRWGRAYDYWGQGTQVTVSS
- polyreactivity (PSR sort gate): high polyreactivity

Sequence: QVQLVESGGGLVQAGGSLRLSCAASGSIFYSYAMGWYRQAPGKERELVAAITTGGSTYYADSVKGRFTISRDNAKNTVYLQMNSLKPEDTAVYYCAADFKPTVTNEPKELDYWGQGTQVTVSS
- polyreactivity (PSR sort gate): low polyreactivity

Sequence: QVQLVESGGGLVQAGGSLRLSCAASGSIFYSYAMGWYRQAPGKERELVAGIRSDGNTNYADSVKGRFTISRDNAKNTVYLQMNSLKPEDTAVYYCARLRYFLLNGSLRYGTSDRDYWGQGTQVTVSS
- polyreactivity (PSR sort gate): high polyreactivity

Sequence: QVQLVESGGGLVQAGGSLRLSCAASGSIFYSYAMGWYRRAPGKERELVARITSSTGRTYYADSVKGRFTISRDNAKNTVYLQMNSLKAEDTAVYYCNVVVKGAWDYYPYDYWGQGTQVTVSS
- polyreactivity (PSR sort gate): high polyreactivity

Sequence: QVQLVESGGGLVQAGGSLRLSCAASGSIFYSYVMGWYRQAPGKERELVAAITTGGSTYYADSVKGRFTISRDNAKNTVYLQMNSLKPEDTAVYYCAAELVGTEYDYWGQGTQVTVSS
- polyreactivity (PSR sort gate): low polyreactivity

Sequence: QVQLVESGGGLVQAGGSLRLSCAASGSIFYTNAMGWYRQAHGKERELVAAIRTGGSTNYADSVKGRFTISRDNAKNTDYLQMNSLTPDDTAVYYCNADVYIRDLFYPYIYTYDYWGQGTQVTVSS
- polyreactivity (PSR sort gate): low polyreactivity

Sequence: QVQLVESGGGLVQAGGSLRLSCAASGSIFYTNDMGWYRQAPGKERELVAAIRYSGVSTYYADSVKGRFTISRDNAKNTVYLQMNSLKPEDTAVYYCATTAYGYRSYSQSQQDMEYWGQGTQVTVSS
- polyreactivity (PSR sort gate): high polyreactivity

Sequence: QVQLVESGGGLVQAGGSLRLSCAASGSIFYVNAMGWNRQPPGKERELVAGITSGGRTNYADSVKGRFTISRDNAKNSVYLQMNSLKPEDTAVYYCATEIRITGLYRYDYWGQGTQVTVSS
- polyreactivity (PSR sort gate): low polyreactivity

Sequence: QVQLVESGGGLVQAGGSLRLSCAASGSIFYVNGMGWYRQAPGKERELVARITLSGTSTYYADSVKGRFTISRDNAKNTVYLQRNSLKPEDPAVYYCAAPYFTYGQDEDEYWGQGTQGTVSS
- polyreactivity (PSR sort gate): low polyreactivity

Sequence: QVQLVESGGGLVQAGGSLRLSCAASGSIFYVYAMGRYRQAPGKERELVASITRRRTNYADSVKVRFTISRDNAKNTVYLQMNSLKPEDTAVYYCAATTYVRQYATYDYWGQGTQVTVSS
- polyreactivity (PSR sort gate): high polyreactivity

Sequence: QVQLVESGGGLVQAGGSLRLSCAASGSIFYVYAMGRYRQAPGTEWELVAAISSGDISYYADSVKGRFTISRDNAKNTVYLQKNSLKPEDTAVYYCNAERLGNTLSPGGDDYWGQGTQVTVSS
- polyreactivity (PSR sort gate): low polyreactivity

Sequence: QVQLVESGGGLVQAGGSLRLSCAASGSIFYVYAMGWYIQAPGKERELVASIRWIGDRTYYADSVKGRFTISRDNAKNTVYLQMNSLKPEDTAVYYCAADPRYYGYYYLTPRYYYWGQGTQVTVSS
- polyreactivity (PSR sort gate): high polyreactivity

Sequence: QVQLVESGGGLVQAGGSLRLSCAASGSIFYVYAMGWYRQAPGKERELVAAINTSGGSTFYADSVKGRFTISRDNAKNTVYLQMNSLKPEDTAVYYCAAERFRYRSTDTMGYWGQGTQVTVSS
- polyreactivity (PSR sort gate): low polyreactivity

Sequence: QVQLVESGGGLVQAGGSLRLSCAASGSIFYVYAMGWYRQAPGKERELVAAISRRGARTYYADSVKGRFTISRDTAKYPVYLQMNSLQPEDTAVYYCNADQYSTVGYSAEYEYWGHGTQVTVSS
- polyreactivity (PSR sort gate): low polyreactivity

Sequence: QVQLVESGGGLVQAGGSLRLSCAASGSIFYVYAMGWYRQAPGKERELVAAITSSGTTNYADSVKGRFTISRDNAKNTVYLQMNSLKPEDTAVYYCAADFYYYKKQYDYWGQGTQVTVSS
- polyreactivity (PSR sort gate): low polyreactivity

Sequence: QVQLVESGGGLVQAGGSLRLSCAASGSIFYVYAMGWYRQAPGKERELVADITTRDGDTYYADSVKGRFTISRDNAKNTVYLQMNSLKPEDTAVYYCAADLNAYPQRAYDYWGQGTQVTVSS
- polyreactivity (PSR sort gate): low polyreactivity

Sequence: QVQLVESGGGLVQAGGSLRLSCAASGSIFYVYAMGWYRQAPGKEREMVAAISKSGGSTYYADSVKGRFTISRDNAKNTVYLQMNSLKPEDTADYYCAAYFSYGSIIEDYWGQGTQVTVSS
- polyreactivity (PSR sort gate): low polyreactivity

Sequence: QVQLVESGGGLVQAGGSLRLSCAASGSIFYWNAMGWYRQAPGKEREFVADISQSGDSTYYADSVKGRFTISRDNAKNTVYLQMNSLKQEDTAVYYCAAQFLSYAWDYDYWGQGTQVTVSS
- polyreactivity (PSR sort gate): low polyreactivity

Sequence: QVQLVESGGGLVQAGGSLRLSCAASGSIFYWNAMGWYRQAPGKERELVAGISQRGGRTSYADSVKGRFTISRDNAKNTVYLQMNSLKPEDTAVYYCAATSVYPRSGSSRYDYWGQGTQVTVSS
- polyreactivity (PSR sort gate): low polyreactivity

Sequence: QVQLVESGGGLVQAGGSLRLSCAASGSIFYWNAMGWYRQAPWKERELVASINWSGSTYYADSVKGSFTISRDNAKNTVYLQMNSLKPEDTAVYYCNTDPRVSDASADMEYWGQGTQVTVSS
- polyreactivity (PSR sort gate): high polyreactivity

Sequence: QVQLVESGGGLVQAGGSLRLSCAASGSIFYWYAMGWYRQAPGKERELVAAISRNGGNTYYADSVKGRFTISRDNAKNTVYLQMNSLKPEDTAVYYCAVAGTVLSHMGYWGQGTQVTVSS
- polyreactivity (PSR sort gate): low polyreactivity

Sequence: QVQLVESGGGLVQAGGSLRLSCAASGSIFYWYAMGWYRQAPGKERELVAAISSGGSTNYADSVKGRFTISRDNAKNTVYLQMNSLKPEDTAVYYCNADIRSFYWEYYTGLDSWGQGTQVTVSS
- polyreactivity (PSR sort gate): low polyreactivity

Sequence: QVQLVESGGGLVQAGGSLRLSCAASGSIFYWYAMGWYRQAPGKERELVAAISSSGSTNYADSVKGRFTISRDNAKNTVYLQMNSLKPEDTAVYYCAAYRTGYNGWGYGYWGQGTQVTVSS
- polyreactivity (PSR sort gate): high polyreactivity

Sequence: QVQLVESGGGLVQAGGSLRLSCAASGSIFYYAMGWYRQAPGKERELVAAISSGGRTNYADSVKGRFTISRDNAKNTVYLQMNSLKPEDTAVYYCAAVSPYGSQYGYWGQGTQVTVSS
- polyreactivity (PSR sort gate): high polyreactivity

Sequence: QVQLVESGGGLVQAGGSLRLSCAASGSIFYYAMGWYRQAPGKERELVATISASGGSTYYADSVKGRFTISRDNEKNTVYLQMNSLKAEDTAVYYCAVRYKSWYGFNYWGQGTQVTVSS
- polyreactivity (PSR sort gate): high polyreactivity

Sequence: QVQLVESGGGLVQAGGSLRLSCAASGSIFYYKYAMGWYRQAPGKERELVAAITSTGGTTYYADSVKGRFTISRDNAKNTVYLQMNSLKPEDTAVYYCAALAPYIGGVDYDYWGQGTQVTVSS
- polyreactivity (PSR sort gate): low polyreactivity

Sequence: QVQLVESGGGLVQAGGSLRLSCAASGSIFYYNAMGWFRQAGGKERELVAALSWSGGSTYYADSVKGRYTISRDNATNTVSLQMNSLKPEETAVYYCNAVGWYTYFSGSRKYNSWGQGTQVTVSS
- polyreactivity (PSR sort gate): low polyreactivity

Sequence: QVQLVESGGGLVQAGGSLRLSCAASGSIFYYNAMGWYRQAPGKERELVAAISQRGTRTYYADSVKGRFTISRDNAKNTVYLQMNSLKPEVTAVYYCAAESSSYYGYYIYYYWGQGTQVTVSS
- polyreactivity (PSR sort gate): high polyreactivity

Sequence: QVQLVESGGGLVQAGGSLRLSCAASGSIFYYNAMGWYRQAPGKERELVAAISVSGGSTYYADSVKGRFTISRDNAKNTVYLQMNSLKPEDTAVYYCAAEWLYYYWLPGRADYLEYDYWGQGTQVTVSS
- polyreactivity (PSR sort gate): low polyreactivity

Sequence: QVQLVESGGGLVQAGGSLRLSCAASGSIFYYNAMGWYRQAPGKERELVASISERGGITRYADSVKGRFTISRDNAKNTVYLQMNSLKREDTAVYYCNRSISLTFYAYAGYFLALDYWGQGTQVTVSS
- polyreactivity (PSR sort gate): low polyreactivity

Sequence: QVQLVESGGGLVQAGGSLRLSCAASGSIFYYNAMGWYRQAPGKERELVATIRSGGNTNYADSVKGRFTISRDNAKNTVYLQMNSLKPEDTAVYYCAARGAYHGYRYDSWGQGTQVTVSS
- polyreactivity (PSR sort gate): low polyreactivity

Sequence: QVQLVESGGGLVQAGGSLRLSCAASGSIFYYNAMGWYRQAPGTERELVAAITSSGGSTYADSVKGRFTISRDNAKNTVYLQMNSLKPEDTAVYYCATVAHGLWSGSGYIYAYDYWGQGTQVTVSS
- polyreactivity (PSR sort gate): low polyreactivity

Sequence: QVQLVESGGGLVQAGGSLRLSCAASGSIFYYNAMGWYRQAPGTERELVAAITSSGGSTYYADSVKGRFTISRDNAKNTVYLQMNSLKPEDTAVYYCNADQDAYYLVYIATYDYWGQGTQVTVSS
- polyreactivity (PSR sort gate): low polyreactivity

Sequence: QVQLVESGGGLVQAGGSLRLSCAASGSIFYYNTMGRYRQAPGKERELVAAIRFDDGSTYYADSVKGRFTISRDNAKNTVYLQMNSLKPEDTAVYYCAADWIVVSEFGLDYHMDYWGQGTQVTVSS
- polyreactivity (PSR sort gate): low polyreactivity

Sequence: QVQLVESGGGLVQAGGSLRLSCAASGSIFYYTNTMGWYRQAPGKERELFAAISSSGGTTYADSVKGRFTISRDYSKNTVYLQMNSLKPEDSAVYYCALDCVLKTYVRGTYDYWGQGTQVTVSS
- polyreactivity (PSR sort gate): high polyreactivity

Sequence: QVQLVESGGGLVQAGGSLRLSCAASGSIFYYYAMGWYRLAAGKERELVAAINSGGSTYADSVKGRFSISRDNAKNTVYLQMNSLIPEDSAVYYSATDIHSVDNNRDKHDYDYWGQGTQVTVSS
- polyreactivity (PSR sort gate): low polyreactivity

Sequence: QVQLVESGGGLVQAGGSLRLSCAASGSIFYYYAMGWYRQAPGKERELVAAISRSGGSTYYADSVKGRFTISRDNAKNTVYLQMNSLKPEDTAVYYCNVAYGLQPYDYWGQGTQVTVSS
- polyreactivity (PSR sort gate): high polyreactivity

Sequence: QVQLVESGGGLVQAGGSLRLSCAASGSIFYYYAMGWYRQAPGKERELVAAISTSSGRTYYADSVKGRFTISRDNAKNTVYLQMNSLKPEDTAVYYCATRYRRDGGSWGQGTQVTVSS
- polyreactivity (PSR sort gate): high polyreactivity

Sequence: QVQLVESGGGLVQAGGSLRLSCAASGSIFYYYAMGWYRQAPGKERELVAAISYGGTRTYYADSVKGRFTISRDNAKNTVYLQMNSLKPEDTAVYYCAASQYSFKGRDYDYWGQGTQVTVSS
- polyreactivity (PSR sort gate): low polyreactivity

Sequence: QVQLVESGGGLVQAGGSLRLSCAASGSIFYYYAMGWYRQAPGKERELVAAITVSGGRTYYADSVKGRFTISRDNAKNTVYLQMNSLKPEDTAVYYCAAQIYGKYDYWGQGTQVTVSS
- polyreactivity (PSR sort gate): low polyreactivity

Sequence: QVQLVESGGGLVQAGGSLRLSCAASGSIFYYYAMGWYRQAPGKERELVAAITVSGGSTYYADSVKGRFTISRDNAKNTVYLQMNSLKPEDTAVYYCAAVSLFRDSQFDYWGQGTQVTVSS
- polyreactivity (PSR sort gate): low polyreactivity

Sequence: QVQLVESGGGLVQAGGSLRLSCAASGSIFYYYAMGWYRQAPGKERELVASITSGGRTYYADSVKGRFTISRDNAKNTVYFQMNSLKPEDTAVYYCAAVYGGLTLTRNYNWGQGTQVTVSS
- polyreactivity (PSR sort gate): high polyreactivity

Sequence: QVQLVESGGGLVQAGGSLRLSCAASGSIFYYYAMVWSRQAPGKERELVAAISSGGRTYYADSVKGRFTISRDNAKYTVYLQMNSLKPEDTAVYYCAAVLRSNRGGYWGQGTQVTVSS
- polyreactivity (PSR sort gate): high polyreactivity

Reference: the nanobody polyreactivity screen of Harvey et al. (2022)
